B1: ICR-115: Thermomyces languinosus lipase, BioCatalytics (protein, UniProt O59952 23-291, looked up)
Lipase: EVSQDLFNQFNLFAQYSAAAYCGKNNDAPAGTNITCTGNACPEVEKADATFLYSFEDSGVGDVTGFLALDNTNKLIVLSFRGSRSIENWIGNLNFDLKEINDICSGCRGHDGFTSSWRSVADTLRQKVEDAVREHPDYRVVFTGHSLGGALATVAGADLRGNGYDIDVFSYGAPRVGNRAFAEFLTVQTGGTLYRITHTNDIVPRLPPREFGYSHSSPEYWIKSGTLVPVTRNDIVKIEGIDATGGNNQPNIPDIPAHLWYFGLIGTCL
B2: ICR-107: Pseudomonas cepacia lipase, BioCatalytics (protein, UniProt P22088 45-364, looked up)
Triacylglycerol lipase: AAGYAATRYPIILVHGLSGTDKYAGVLEYWYGIQEDLQQNGATVYVANLSGFQSDDGPNGRGEQLLAYVKTVLAATGATKVNLVGHSQGGLSSRYVAAVAPDLVASVTTIGTPHRGSEFADFVQDVLAYDPTGLSSSVIAAFVNVFGILTSSSHNTNQDALAALQTLTTARAATYNQNYPSAGLGAPGSCQTGAPTETVGGNTHLLYSWAGTAIQPTLSVFGVTGATDTSTLPLVDPANVLDLSTLALFGTGTVMINRGSGQNDGLVSKCSALYGKVLSTSYKWNHLDEINQLLGVRGAYAEDPVAVIRTHANRLKLAGV
B3: ICR-116: Mucor miehei lipase, BioCatalytics (protein, UniProt P19515 95-363, looked up)
Lipase: SIDGGIRAATSQEINELTYYTTLSANSYCRTVIPGATWDCIHCDATEDLKIIKTWSTLIYDTNAMVARGDSEKTIYIVFRGSSSIRNWIADLTFVPVSYPPVSGTKVHKGFLDSYGEVQNELVATVLDQFKQYPSYKVAVTGHSLGGATALLCALDLYQREEGLSSSNLFLYTQGQPRVGDPAFANYVVSTGIPYRRTVNERDIVPHLPPAAFGFLHAGEEYWITDNSPETVQVCTSDLETSDCSNSIVPFTSVLDHLSYFGINTGLCT
B4: ICR-114: porcine pancreas lipase, BioCatalytics (protein, UniProt P00591 1-450, looked up)
Pancreatic triacylglycerol …: SEVCFPRLGCFSDDAPWAGIVQRPLKILPWSPKDVDTRFLLYTNQNQNNYQELVADPSTITNSNFRMDRKTRFIIHGFIDKGEEDWLSNICKNLFKVESVNCICVDWKGGSRTGYTQASQNIRIVGAEVAYFVEVLKSSLGYSPSNVHVIGHSLGSHAAGEAGRRTNGTIERITGLDPAEPCFQGTPELVRLDPSDAKFVDVIHTDAAPIIPNLGFGMSQTVGHLDFFPNGGKQMPGCQKNILSQIVDIDGIWEGTRDFVACNHLRSYKYYADSILNPDGFAGFPCDSYNVFTANKCFPCPSEGCPQMGHYADRFPGKTNGVSQVFYLNTGDASNFARWRYKVSVTLSGKKVTGHILVSLFGNEGNSRQYEIYKGTLQPDNTHSDEFDSDVEVGDLQKVKFIWYNNNVINPTLPRVGASKITVERNDGKVYDFCSQETVREEVLLTLNPC

What was measured:
Type in all cases: biochemical
[1] = Lipase-catalyzed perhydrolysis of triacetin at pH 4.0 (Example 2); conditions: 250 mM triacetin, 500 mM H2O2, pH 4.0, 1 mg enzyme, 22° C.
Method: Into a 4-mL glass vial with stir bar was added 1 mg enzyme (ICR 101-117, BioCatalytics, Pasadena, Calif.) in 0.050 mL of 50 mM sodium acetate/acetic acid buffer (pH 4.0), 0.900 mL of 278 mM triacetin in 50 mM sodium acetate/acetic acid buffer (pH 4.0, 250 mM final triacetin concentration), and 0.052 mL 30% hydrogen peroxide (500 mM final concentration). […] A portion of the filtered reaction samples was diluted 1:10 with dd water and analyzed for hydrogen peroxide, and the remaining portion of the sample was directly analyzed for peracid using the HPLC assay method (Table 2).

[2] = Lipase-catalyzed perhydrolysis of triacetin at pH 6.5 (Example 1); conditions: 250 mM triacetin, 500 mM H2O2, pH 6.5, 1 mg enzyme, 22° C.
Method: Into a 4-mL glass vial with stir bar was added 1 mg enzyme (ICR 101-117, BioCatalytics, Pasadena, Calif.) in 0.050 mL of 50 mM potassium phosphate buffer (pH 6.5), 0.900 mL of 278 mM triacetin in 50 mM potassium phosphate buffer (pH 6.5, 250 mM final triacetin concentration), and 0.052 mL 30% hydrogen peroxide (500 mM final concentration). After stirring for 5 or 30 minutes at 22° C., a 0.250 mL sample was filtered using a 30,000 Nominal Molecular Weight Limit (NMWL) filter (Millipore UltraFree-MC, Millipore Corp., Billerica, Mass.) centrifuged for 2 minute at 12,000 RPM. A portion of the filtered reaction samples was diluted 1:10 with dd water and analyzed for hydrogen peroxide, and the remaining portion of the sample was directly analyzed for peracid using the HPLC assay method (Table 1).

[3] = Lipase-catalyzed perhydrolysis of a mixture of diacetin, triacetin and monoacetin at pH 6.5 (Example 4); conditions: diacetin (278 mM), triacetin (144 mM), monoacetin (131 mM); for 250 mM H2O2 peracetic acid (ppm), 5 min / 250 mM H2O2 peracetic acid (ppm), 30 min: pH 6.5, 250 mM H2O2, 1 mg enzyme; for 500 mM H2O2 peracetic acid (ppm), 5 min / 500 mM H2O2 peracetic acid (ppm), 30 min: pH 6.5, 500 mM H2O2, 1 mg enzyme
Method: Into a 4-mL glass vial with stir bar was added 1 mg enzyme (ICR 101-117, BioCatalytics, Pasadena, Calif.) in 0.050 mL of 50 mM potassium phosphate buffer (pH 6.5), 0.900 mL of an aqueous mixture containing diacetin (278 mM), triacetin (144 mM) and monoacetin (131 mM) in 50 mM potassium phosphate buffer (pH 6.5), and either 0.052 mL 30% hydrogen peroxide (500 mM final concentration) or 0.026 mL 30% hydrogen peroxide (250 mM final concentration). […] A portion of the filtered reaction samples was diluted 1:10 with dd water and analyzed for hydrogen peroxide, and the remaining portion of the sample was directly analyzed for peracid using the HPLC assay method (Table 4).

| Molecule | peracetic acid (ppm), 5 min [1] [ppm] | peracetic acid (ppm), 30 min [1] [ppm] | peracetic acid (ppm), 5 min [2] [ppm] | peracetic acid (ppm), 30 min [2] [ppm] | 250 mM H2O2 peracetic acid (ppm), 5 min [3] [ppm] | 250 mM H2O2 peracetic acid (ppm), 30 min [3] [ppm] | 500 mM H2O2 peracetic acid (ppm), 5 min [3] [ppm] | 500 mM H2O2 peracetic acid (ppm), 30 min [3] [ppm] |
| --- | --- | --- | --- | --- | --- | --- | --- | --- |
| B1 | 206 | 132 | 216 | 113 | 0 | 8 | 11 | 8 |
| B2 | 32 | 135 | 179 | 0 | 0 | 102 | 17 | 54 |
| B3 | 14 | 0 | 238 | 117 | 0 | 7 | 0 | 0 |
| B4 | 165 | 53 | 135 | 0 | 0 | 0 | 0 | 0 |

Reference: patent US8063008B2, “Enzymatic production of peracids using perhydrolytic enzymes” (E. I. du Pont de Nemours and Company, priority 2005, dated 2011)
